Paper PMC6287947

How the values were obtained:
taxol-stabilized MTs [1] = experiment: co-sedimentation; 6His-Prp31 (10 nM) or 6His-Sf3A2 (13 nM) incubated at RT for 30 min with 2 μM taxol-stabilized MTs (or 2 μM tubulin without Taxol), centrifuged at 100,000 g at RT for 40 min; supernatants and pellets by Western blotting
taxol-stabilized MTs [2] = experiment: co-sedimentation; 6His-Prp31 (10 nM) or 6His-Sf3A2 (13 nM) with increasing amounts of taxol-stabilized MTs (0.25–2 μM of tubulin dimers in MT polymers), 25 mM NaCl, RT 30 min, 100,000 g 40 min; SDS-PAGE and Coomassie staining; three independent experiments

percent co-sedimented with MTs (taxol-stabilized MTs [1]) | percent co-sedimented with MTs (taxol-stabilized MTs [2]) | Molecule
> 80% | > 80% | 6His-Sf3A2 (from UniProt Q9VU15 1-264) (natural protein)
> 80% | > 80% | 6His-Prp31 (natural protein) MSLADELLADLEEDNDNELEEEDSEMASAEDESLLAEKLAKPAPNLMDVDVTVQSVRELCKLRDSERLKNTLQQIEHYASRQRTAAEMLGSVESDPEYCLIVDANAIAVDIDNEISIVHKFTKEKYQKRFPELDSLIVGEIEYLLAVKELGNDLDQVKNNEKLQAILTQATIMIVSVTASTTQGTMLTPAEKAKIDEACEMAIELNNFKSKIYEYVESRMTFIAPNLSMIVGASTAAKLLGIAGGLSKLSKMPACNVQVLGAQKKTLSGFSQTQMLPHTGYVYYSQIVQDTAPDLRRKAARLVAAKSVLAARVDACHESVHGEIGLRFKEDVEKKLDKLQEPPPVKFIKPLPKPIEGSKKKRGGKRVRKMKERYALTEFRKQANRMNFGDIEEDAYQGDLGYSRGTIGKTGTGRIRLPQVDEKTKVRISKTLHKNLQKQQVYGGNTTVKRQISGTASSVAFTPLQGLEIVNPQAAERSQTEANAKYFSNTSGFMSVGQRTT
